Test results reported in publication PMC6364671.

Molecular target: recombinant human CD74 (C27S) (human) (UniProt P04233)
Experiment: ELISA

Substance | IC50
DRα1-hMOG-35-55 (from UniProt P01903 15-97) | 1640 nM
DRα1-mMOG-35-55 | 937 nM
